Reference: US20200048328A1 (Bristol-Myers Squibb, published 2020)

Tests used:
rhesus serum albumin [1] = target: T1, rhesus serum albumin (rhesus, UniProt Q28522 17-600); assay: SPR, albumin immobilized, acetate pH 5.5
T1 construct: also called RhSA; Rh-SA

human serum albumin [2] = target: T2, human serum albumin (human, UniProt P02768 25-609); assay: SPR, albumin immobilized, acetate pH 5.5
T2 construct: immobilized on chips or coated on plates elsewhere; also called HSA; HuSA

mouse serum albumin [3] = target: T3, mouse serum albumin (mouse, UniProt P07724 25-608); assay: SPR, albumin immobilized, acetate pH 5.5
T3 construct: also called MSA; MuSA
T3 sequence (P07724 25-608 limits assumed): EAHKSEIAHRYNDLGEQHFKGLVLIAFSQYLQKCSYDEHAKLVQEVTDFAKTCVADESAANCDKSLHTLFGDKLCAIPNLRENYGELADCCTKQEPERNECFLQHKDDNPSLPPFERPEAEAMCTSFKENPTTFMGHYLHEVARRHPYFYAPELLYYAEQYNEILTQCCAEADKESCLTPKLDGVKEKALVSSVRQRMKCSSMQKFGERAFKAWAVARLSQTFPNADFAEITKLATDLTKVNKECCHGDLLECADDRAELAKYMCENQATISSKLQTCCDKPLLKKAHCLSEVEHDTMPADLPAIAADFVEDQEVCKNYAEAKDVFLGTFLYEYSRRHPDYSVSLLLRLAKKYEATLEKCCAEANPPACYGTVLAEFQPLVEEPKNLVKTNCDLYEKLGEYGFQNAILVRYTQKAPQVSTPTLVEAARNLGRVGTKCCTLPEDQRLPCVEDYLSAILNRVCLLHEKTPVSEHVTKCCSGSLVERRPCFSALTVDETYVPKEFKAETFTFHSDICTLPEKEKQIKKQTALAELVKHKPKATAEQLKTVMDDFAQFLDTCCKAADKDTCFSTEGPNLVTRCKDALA

rhesus serum albumin [4] = target: T1, rhesus serum albumin; assay: SPR, albumin immobilized, acetate pH 7.4
human serum albumin [5] = target: T2, human serum albumin; assay: SPR, albumin immobilized, acetate pH 7.4
mouse serum albumin [6] = target: T3, mouse serum albumin; assay: SPR, albumin immobilized, acetate pH 7.4
mouse serum albumin [7] = target: T3, mouse serum albumin; assay: SPR, albumin immobilized, acetate pH 7.4; remark: listed apart in the source
human PCSK9 = target: T4, human PCSK9 (human, UniProt Q8NBP7 31-692); assay: SPR, dual injection on immobilized albumin
T4 construct: also called hPCSK9; huPCSK9

T1 sequence (Q28522 17-600 limits assumed): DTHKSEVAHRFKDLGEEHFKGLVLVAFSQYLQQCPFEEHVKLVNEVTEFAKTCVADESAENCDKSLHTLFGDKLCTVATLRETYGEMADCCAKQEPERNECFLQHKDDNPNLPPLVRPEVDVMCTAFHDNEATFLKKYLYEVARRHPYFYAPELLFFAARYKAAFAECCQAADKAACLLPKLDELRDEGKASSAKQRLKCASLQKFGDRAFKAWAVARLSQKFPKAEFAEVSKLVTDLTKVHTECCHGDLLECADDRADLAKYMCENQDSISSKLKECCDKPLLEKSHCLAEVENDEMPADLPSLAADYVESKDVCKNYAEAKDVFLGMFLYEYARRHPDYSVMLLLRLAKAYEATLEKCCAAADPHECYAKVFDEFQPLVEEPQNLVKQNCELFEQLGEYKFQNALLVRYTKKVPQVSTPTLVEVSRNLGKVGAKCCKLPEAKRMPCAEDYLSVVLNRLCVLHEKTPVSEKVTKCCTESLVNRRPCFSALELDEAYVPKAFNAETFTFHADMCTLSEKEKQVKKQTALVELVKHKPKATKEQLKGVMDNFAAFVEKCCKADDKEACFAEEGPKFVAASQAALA

B1: PKE2 Adnectin 2629_E06 (designed binder)
chain: MGVSDVPRDLEVVAATPTSLLISWDAPAVTVRYYRITYGREVQKYSDLGPLYIYQEFTVPGSKSTATISGLKPGVDYTITVYAVTGSGESPASSKPISINYRTEIDKPSQHHHHHH
notes: 10Fn3 domain with modified CD loop; the entry includes the His6 tail; also called ADX_2629_E06
Kd (rhesus serum albumin [1]): 12 nM
koff (rhesus serum albumin [1]): 0.000584 s⁻¹
kon (rhesus serum albumin [1]): 48500 M⁻¹ s⁻¹
Kd (human serum albumin [2]): 4.64 nM
koff (human serum albumin [2]): 0.000326 s⁻¹
kon (human serum albumin [2]): 70400 M⁻¹ s⁻¹
Kd (mouse serum albumin [3]): 14.9 nM
koff (mouse serum albumin [3]): 0.00125 s⁻¹
kon (mouse serum albumin [3]): 84000 M⁻¹ s⁻¹
Kd (rhesus serum albumin [4]): 10.4 nM
koff (rhesus serum albumin [4]): 0.000297 s⁻¹
kon (rhesus serum albumin [4]): 28600 M⁻¹ s⁻¹
Kd (human serum albumin [5]): 9.6 nM
koff (human serum albumin [5]): 0.000243 s⁻¹
kon (human serum albumin [5]): 25400 M⁻¹ s⁻¹
Kd (mouse serum albumin [6]): 11.2 nM
koff (mouse serum albumin [6]): 0.000503 s⁻¹
Kd (mouse serum albumin [7]): 3.48 nM
koff (mouse serum albumin [7]): 0.000268 s⁻¹
kon (mouse serum albumin [7]): 76800 M⁻¹ s⁻¹
binding result (human PCSK9): no binding
